Data taken from the MegaScale stability set (Tsuboyama et al. 2023).

B1: 6NMW (parent)
chain: QGDIVVALYPYDGIHPDDLSFKKGEKMKVLEEHGEWWKAKSLLTKKEGFIPSNYVAKLN
B2: HHH_rd2_0155 (parent)
chain: PPDDERKKAEKAARSGNEEKAREILERLGYSEDEARELAKRLR

Variants of: B1
Test: folding stability dG (cDNA display proteolysis); higher = more stable
Details: PBS, room temperature

Folding stability dG [kcal/mol]: each site, then its substitutions
N59: T 3.58; W 3.08; V 3.95; Y 3.57

Variants of: B2
Test: as above
Details: PBS, room temperature

Folding stability dG [kcal/mol], by site and new letter:
P1: A 2.22; T 2.36; E 2.2; R 2.21; Q 2.2; H 2.29; V 2.13; G 2.26; M 2.17; N 2.41; Y 2.24; I 2.12; D 2.36; W 2.33; S 2.35; L 2.24; K 2.14; F 2.22
D4: C 2.15; I 2.17; V 2.06; Y 1.93; M 1.97; E 2.26; H 1.88; A 2.09; Q 2.04; L 2.22; N 1.9; P 1.88; K 1.95; T 2.17; S 2.16; G 1.75; F 2.02; R 1.98; W 2.09
K11: P 0.889; S 1.97; L 2.35; G 1.39; H 2.32; R 2.47; T 2.11; C 2.29; A 2.43; F 2.01; V 2.19; E 2.5; N 2.11; D 2.38; Q 2.36; W 2.14; M 2.48; Y 2.14; I 2.45
A13: R 0.884; K 0.841; W 1.82; V 1.19; M 1.35; Q 0.906; T 1.15; E 0.902; L 1.54; D 0.978; I 1.46; G 1.07; P 0.95; H 1; Y 1.35; N 0.717; F 1.5; S 1.13
K8: Y 1.62; H 1.94; A 2.18; D 1.86; R 2.15; L 2.22; F 1.75; S 1.84; P 1.14; E 2.26; Q 2.19; M 2.18; V 1.77; G 1.36; I 1.84; T 1.81; N 1.99; W 1.97
R14: D 1.01; L 1.79; W 1.77; N 1.3; S 1.44; V 1.75; I 1.84; H 1.6; K 2.08; E 1.32; T 1.41; P 0.9; M 1.96; F 1.6; Q 1.89; G 1.04; Y 1.73; A 1.78
A9: L 1.33; R 0.946; D 0.819; K 0.809; N 0.839; Y 1.47; V 1.29; P 1.13; H 1.18; W 1.53; C 1.45; M 1.05; I 1.25; F 1.27; Q 0.885; E 1.03; G 1.13; S 1.02; T 1.05
E5: Y 1.81; W 2.35; T 1.73; R 1.66; S 1.8; G 1.65; H 1.5; D 2.01; Q 1.91; I 1.51; M 2.33; K 1.45; L 2.65; P 1.8; F 1.88; A 1.86; V 1.61; N 1.5
S15: D 2.23; F 1.65; R 2.05; M 2.26; E 2.53; L 1.95; T 1.8; G 1.86; K 1.59; W 1.83; P 0.861; Y 1.55; V 1.55; C 2.15; Q 2.21; A 2.26; H 1.83; N 2.09; I 1.57
G16: M 1.33; N 1.23; V 0.998; H 1.32; K 1.22; S 1.22; T 0.813; Y 1.47; Q 1.04; D 1.24; E 0.965; L 1.54; I 1.2; P 0.825; A 1.15; W 1.42; F 1.53; R 1.11
D3: K 1.73; G 1.98; L 2.06; M 2.02; P 1.89; W 2.1; F 1.79; Y 1.93; E 2.14; C 2.41; R 1.75; T 1.95; A 1.91; N 1.98; H 1.9; Q 1.92; V 1.85; S 2.08; I 1.95
K7: A 2.1; T 2.17; C 2.17; E 1.98; Y 1.91; Q 2.18; D 1.7; W 2.15; P 1.16; H 1.85; S 1.94; I 2.08; F 1.89; G 1.76; M 2.21; V 2.02; R 2.25; L 2.17; N 1.85
R6: I 2.63; M 3.24; A 1.63; G 1.11; F 3.38; S 1.3; W 3.4; K 1.75; H 2.1; P 0.99; L 3; D 0.9; V 2.27; Y 3.31; N 1.17; T 1.54; Q 1.73; E 1.54
N17: W 1.98; M 1.61; Y 1.71; K 1.42; T 0.954; D 2.42; G 1.08; F 1.9; S 1.4; H 1.77; E 1.71; L 1.65; V 0.993; A 1.4; R 1.46; I 1.13; P 0.962; Q 1.81
E10: Q 1.93; V 2.23; R 2.03; S 1.66; K 1.78; Y 2.44; T 1.82; N 1.29; A 2.3; L 2.38; P 1.05; W 2.31; H 1.75; G 1.58; M 2.33; I 2.4; D 1.22; F 2.16
E18: M 2.61; Q 1.5; A 1.57; T 1.8; D 1.53; K 0.82; H 1.44; V 2.3; P 1.23; W 2.32; F 2.24; N 1.17; R 0.996; S 1.37; G 1.19; I 2.6; L 2.8
P2: V 2.2; M 2.23; E 2.24; Y 2.29; T 2.02; G 2.04; H 2.24; Q 2.15; S 1.97; R 2.17; F 2.35; N 2.15; A 2.18; D 2.21; C 2.29; W 2.29; I 2.25; L 2.14; K 2.11
A12: K 1.01; G 1.03; S 1.34; Q 1.69; Y 2.6; L 2.38; V 1.49; F 2.47; H 1.9; M 2.11; W 2.4; I 1.61; R 1.18; P 0.925; D 0.919; E 2; T 1.24; N 1.04
